Assay results published in US20140087995A1 (published 2014).
Numbered stars: 1 amine (or outer) side, 2 acyl side, 3 side chain; on linkers, the order of the positions; unused ones are H or OH. Bridge positions count the residues as written; N and C are the ends. * marks the point of attachment. C20 diacid = O=C(O)CCCCCCCCCCCCCCCCCCC(=O)*; γGlu = O=C(O)[C@H](CCC(=O)[*:2])N[*:1]

B1: N^α1-[(4S)-4-carboxy-4-(19-carboxynonadecanoylamino)butanoyl]-[Asp14,Arg17,Pro21,Pro27,Pro37]-h-amylin (peptide)
peptide: {C20 diacid-γGlu}-KCNTATCATQRLADFLRHSSPNFGAIPSSTNVGSNTP-NH2
modifications: disulfide 2-7
SMILES: CC[C@H](C)[C@H](NC(=O)[C@H](C)NC(=O)CNC(=O)[C@H](Cc1ccccc1)NC(=O)[C@H](CC(N)=O)NC(=O)[C@@H]1CCCN1C(=O)[C@H](CO)NC(=O)[C@H](CO)NC(=O)[C@H](Cc1c[nH]cn1)NC(=O)[C@H](CCCNC(=N)N)NC(=O)[C@H](CC(C)C)NC(=O)[C@H](Cc1ccccc1)NC(=O)[C@H](CC(=O)O)NC(=O)[C@H](C)NC(=O)[C@H](CC(C)C)NC(=O)[C@H](CCCNC(=N)N)NC(=O)[C@H](CCC(N)=O)NC(=O)[C@@H](NC(=O)[C@H](C)NC(=O)[C@@H]1CSSC[C@H](NC(=O)[C@H](CCCCN)NC(=O)CC[C@H](NC(=O)CCCCCCCCCCCCCCCCCCC(=O)O)C(=O)O)C(=O)N[C@@H](CC(N)=O)C(=O)N[C@@H]([C@@H](C)O)C(=O)N[C@@H](C)C(=O)N[C@@H]([C@@H](C)O)C(=O)N1)[C@@H](C)O)C(=O)N1CCC[C@H]1C(=O)N[C@@H](CO)C(=O)N[C@@H](CO)C(=O)N[C@H](C(=O)N[C@@H](CC(N)=O)C(=O)N[C@H](C(=O)NCC(=O)N[C@@H](CO)C(=O)N[C@@H](CC(N)=O)C(=O)N[C@H](C(=O)N1CCC[C@H]1C(N)=O)[C@@H](C)O)C(C)C)[C@@H](C)O
notes: Synthetic acylated analogue of human amylin; also called compound 10
B2: N^α1-[(4S)-4-carboxy-4-(19-carboxynonadecanoylamino)butanoyl]-[Glu14,Arg17,Pro21,Pro27,Asp35,Pro37]-h-amylin (peptide)
peptide: {C20 diacid-γGlu}-KCNTATCATQRLAEFLRHSSPNFGAIPSSTNVGSDTP-NH2
modifications: disulfide 2-7
SMILES: CC[C@H](C)[C@H](NC(=O)[C@H](C)NC(=O)CNC(=O)[C@H](Cc1ccccc1)NC(=O)[C@H](CC(N)=O)NC(=O)[C@@H]1CCCN1C(=O)[C@H](CO)NC(=O)[C@H](CO)NC(=O)[C@H](Cc1c[nH]cn1)NC(=O)[C@H](CCCNC(=N)N)NC(=O)[C@H](CC(C)C)NC(=O)[C@H](Cc1ccccc1)NC(=O)[C@H](CCC(=O)O)NC(=O)[C@H](C)NC(=O)[C@H](CC(C)C)NC(=O)[C@H](CCCNC(=N)N)NC(=O)[C@H](CCC(N)=O)NC(=O)[C@@H](NC(=O)[C@H](C)NC(=O)[C@@H]1CSSC[C@H](NC(=O)[C@H](CCCCN)NC(=O)CC[C@H](NC(=O)CCCCCCCCCCCCCCCCCCC(=O)O)C(=O)O)C(=O)N[C@@H](CC(N)=O)C(=O)N[C@@H]([C@@H](C)O)C(=O)N[C@@H](C)C(=O)N[C@@H]([C@@H](C)O)C(=O)N1)[C@@H](C)O)C(=O)N1CCC[C@H]1C(=O)N[C@@H](CO)C(=O)N[C@@H](CO)C(=O)N[C@H](C(=O)N[C@@H](CC(N)=O)C(=O)N[C@H](C(=O)NCC(=O)N[C@@H](CO)C(=O)N[C@@H](CC(=O)O)C(=O)N[C@H](C(=O)N1CCC[C@H]1C(N)=O)[C@@H](C)O)C(C)C)[C@@H](C)O
notes: Synthetic acylated analogue of human amylin; also called compound 11
B3: N^α1-[(4S)-4-carboxy-4-(19-carboxynonadecanoylamino)butanoyl]-[Glu14,Arg17,Pro21,Pro26,Pro37]-h-amylin (peptide)
peptide: {C20 diacid-γGlu}-KCNTATCATQRLAEFLRHSSPNFGAPLSSTNVGSNTP-NH2
modifications: disulfide 2-7
SMILES: CC(C)C[C@H](NC(=O)[C@H](CCCNC(=N)N)NC(=O)[C@H](CCC(N)=O)NC(=O)[C@@H](NC(=O)[C@H](C)NC(=O)[C@@H]1CSSC[C@H](NC(=O)[C@H](CCCCN)NC(=O)CC[C@H](NC(=O)CCCCCCCCCCCCCCCCCCC(=O)O)C(=O)O)C(=O)N[C@@H](CC(N)=O)C(=O)N[C@@H]([C@@H](C)O)C(=O)N[C@@H](C)C(=O)N[C@@H]([C@@H](C)O)C(=O)N1)[C@@H](C)O)C(=O)N[C@@H](C)C(=O)N[C@@H](CCC(=O)O)C(=O)N[C@@H](Cc1ccccc1)C(=O)N[C@@H](CC(C)C)C(=O)N[C@@H](CCCNC(=N)N)C(=O)N[C@@H](Cc1c[nH]cn1)C(=O)N[C@@H](CO)C(=O)N[C@@H](CO)C(=O)N1CCC[C@H]1C(=O)N[C@@H](CC(N)=O)C(=O)N[C@@H](Cc1ccccc1)C(=O)NCC(=O)N[C@@H](C)C(=O)N1CCC[C@H]1C(=O)N[C@@H](CC(C)C)C(=O)N[C@@H](CO)C(=O)N[C@@H](CO)C(=O)N[C@H](C(=O)N[C@@H](CC(N)=O)C(=O)N[C@H](C(=O)NCC(=O)N[C@@H](CO)C(=O)N[C@@H](CC(N)=O)C(=O)N[C@H](C(=O)N1CCC[C@H]1C(N)=O)[C@@H](C)O)C(C)C)[C@@H](C)O
notes: Synthetic acylated analogue of human amylin; also called compound 5

The binders below were run against T1, human calcitonin receptor (human, UniProt P30988 25-474) (assay: cell-based or functional assay).
T1 sequence (looked up): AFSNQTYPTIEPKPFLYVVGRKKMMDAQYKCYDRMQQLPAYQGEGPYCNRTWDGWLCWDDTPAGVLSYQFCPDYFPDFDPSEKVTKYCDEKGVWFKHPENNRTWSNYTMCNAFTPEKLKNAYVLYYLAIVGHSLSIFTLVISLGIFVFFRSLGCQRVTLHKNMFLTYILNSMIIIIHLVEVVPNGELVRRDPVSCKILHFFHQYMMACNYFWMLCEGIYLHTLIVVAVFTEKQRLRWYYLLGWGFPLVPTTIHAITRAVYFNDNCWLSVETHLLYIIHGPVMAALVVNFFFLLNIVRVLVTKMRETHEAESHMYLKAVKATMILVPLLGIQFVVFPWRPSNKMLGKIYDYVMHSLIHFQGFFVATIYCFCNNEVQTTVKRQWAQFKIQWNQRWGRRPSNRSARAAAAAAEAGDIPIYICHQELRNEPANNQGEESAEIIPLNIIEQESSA
In the case of B1, the “hCTR funct. EC50 (CRE luciferase reporter, BHK cells)” value (“hCTR funct. EC50” for short) is reported as 0.07 nM. B2 was tested, and the “hCTR funct. EC50” value was 0.112 nM. In the case of B3, the “hCTR funct. EC50” value is reported as 0.16 nM.
